Assay results reported in patent US20230133381A1.

What was measured:
[1] = molecular target: human DR5 (human); assay: TRAIL competitive ELISA: human DR5 coated on the plate (0.1 ug/ml), TRAIL titrated against the binding of control antibody AP, bound AP detected with anti-human Fc-HRP, ABTS, absorbance at 405 nm
[2] = molecular target: human DR5 (human); assay: SPR (BIAcore X100), human DR5 on CM5 chip, IgG injected, 1:1 Langmuir model
[3] = molecular target: human DR5 (human); assay: ELISA: human DR5 coated on the plate (10 ng/ml), antibody titrated, anti-human Fc-HRP, TMB, absorbance at 450 nm

Molecule	IC50 (read off the curve) [1]	Kd [2]	koff [2]	kon [2]	EC50 (read off the curve) [3]
D0 (antibody, V domains shown) VH: AVTLDESGGGLQTPGGGLSLVCKGSGFTFSSFNMLWVRQAPGKGLEWVAGIGKSDRYTGYGSAVKGRATISRDDGQSTVRLQLNNLRAEDTGTYYCVKDAGSGCGSGGWTGACIDTWGHGTEVIVSS VL: LTQPSSVSANLGGTVEITCSGGDSYAGSYYYGWYQQKAPGSAPVTVIYNNNNRPSNIPSRFSGSTSGSTATLTITGVQAEDEAVYFCGSRDSSYVGIFGAGTTLTVL	–	15.2 pM	2.26e-05 s⁻¹	1.49e+06 M⁻¹ s⁻¹	0.006 µg/mL
DA8 (antibody, V domains shown) VH: EVQLVESGGGLVQPGGSLRLSCAASGFTFSSFNMLWVRQAPGKGLEWVAGIGKSDRYTGYGSAVKGRFTISRDDSKSTVYLQMNSLRAEDTAVYYCVRDAGSGCGSGGWTGACIDTWGQGTLVTVSS VL: DIQMTQSPSSLSASVGDRVTITCSGGDSYAGSYYYGWYQQKPGKAPKTLIYNNNNRPSGVPSRFSGSGSGTDFTLTISSLQPEDFATYYCGSRDSSYVGIFGQGTKVEIK	–	< 6.25 pM	< 1e-05 s⁻¹	1.6e+06 M⁻¹ s⁻¹	0.02 µg/mL
DA18 (antibody, V domains shown) VH: EVQLVESGGGLVQPGGSLRLSCAASGFTFSSFNMLWVRQAPGKGLEWVAGIGKSDRYTGYGSAVKGRFTISRDDSKSTVYLQMNSLRAEDTAVYYCVRDAGSGCGSGGWTGACIDTWGQGTLVTVSS VL: DIQMTQSPSSLSASVGDRVTITCSGGDSYAGSYYYGWYQQKPGKAPKTLIYNNNNRPSGVPSRFSGSRSGTDFTLTISSLQPEDFATYYCGSRDSDGGGRFGQGTKVEIK	–	27.7 pM	3.67e-05 s⁻¹	1.33e+06 M⁻¹ s⁻¹	0.03 µg/mL
DA17 (antibody, V domains shown) VH: EVQLVESGGGLVQPGGSLRLSCAASGFTFSSFNMLWVRQAPGKGLEWVAGIGKSDRYTGYGSAVKGRFTISRDDSKSTVYLQMNSLRAEDTAVYYCVRDAGSGCGSGGWTGACIDTWGQGTLVTVSS VL: DIQMTQSPSSLSASVGDRVTITCSGGDSYAGSYYYGWYQQKPGKAPKTLIYNNNNKAKGVPSRFSGSRSGTDFTLTISSLQPEDFATYYCGSRDSSYVGIFGQGTKVEIK	–	23.5 pM	5.97e-05 s⁻¹	2.54e+06 M⁻¹ s⁻¹	0.03 µg/mL
DA5 (antibody, V domains shown) VH: EVQLVESGGGLVQPGGSLRLSCAASGFTFSSFNMLWVRQAPGKGLEWVAGIGKSDRYTGYGSAVKGRFTISRDDSKSTAYLQMNSLRAEDTAVYYCVRDAGSGCGSGGWTGACIDTWGQGTLVTVSS VL: DIQMTQSPSSLSASVGDRVTITCSGGDSYAGSYYYGWYQQKPGKAPKTLIYNNNNRPSGVPSRFSGSTSGTDFTLTISSLQPEDFATYYCGSRDSSYVGIFGQGTKVEIK	–	< 8.33 pM	< 1e-05 s⁻¹	1.2e+06 M⁻¹ s⁻¹	0.03 µg/mL
DA15 (antibody, V domains shown) VH: EVQLVESGGGLVQPGGSLRLSCAASGFTFSSFNMLWVRQAPGKGLEWVAGIGKSDRYTGYGSAVKGRFTISRDTSKNTAYLQMNSLRAEDTAVYYCSRDAGSGCGSGGWTGACIDTWGQGTLVTVSS VL: DIQMTQSPSSLSASVGDRVTITCSGGDSYAGSYYYGWYQQKPGKAPKTLIYNNNNRPSGVPSRFSGSRSGTDFTLTISSLQPEDFATYYCGSRDSDGGGRFGQGTKVEIK	–	1.09 pM	2.78e-06 s⁻¹	2.56e+06 M⁻¹ s⁻¹	0.01 µg/mL
DA9 (antibody, V domains shown) VH: EVQLVESGGGLVQPGGSLRLSCAASGFTFSSFNMLWVRQAPGKGLEWVAGIGKSDRYTGYGSAVKGRFTISRDDSKSTLYLQMNSLRAEDTAVYYCVRDAGSGCGSGGWTGACIDTWGQGTLVTVSS VL: DIQMTQSPSSLSASVGDRVTITCSGGDSYAGSYYYGWYQQKPGKAPKTLIYNNNNRPSGVPSRFSGSRSGTDFTLTISSLQPEDFATYYCGSRDSSYVGIFGQGTKVEIK	–	0.071 pM	4e-07 s⁻¹	5.6e+06 M⁻¹ s⁻¹	0.02 µg/mL

Other lines, results leading:

IC50 (read off the curve) [1]	Kd [2]	koff [2]	kon [2]	EC50 (read off the curve) [3]	Molecule
5000 pM	–	–	–	–	TRAIL protein (from UniProt P50591 114-281) (ligand)
–	69.8 pM	8.47e-05 s⁻¹	1.21e+06 M⁻¹ s⁻¹	0.01 µg/mL	DA29 (antibody, V domains shown) VH: AVTLDESGGGLQTPGGGLSLVCKGSGFTFSSFNMLWVRQAPGKGLEWVAGIGKSDRYTGYGSAVKGRATISRDDGQSTARLQLNNLRAEDTGTYYCVKDAGSGCGSGGWTGACIDTWGHGTEVIVSS VL: LTQPSSVSANLGGTVEITCSGGDSYAGSYYYGWYQQKAPGSAPVTVIYNNNNRPSNIPSRFSGSTSGSTATLTITGVQAEDEATYFCGSRDSSYVGIFGAGTTLTVL
–	78.8 pM	9.77e-05 s⁻¹	1.24e+06 M⁻¹ s⁻¹	0.02 µg/mL	DA33 (antibody, V domains shown) VH: AVTLDESGGGLQTPGGGLSLVCKGSGFTFSSFNMLWVRQAPGKGLEWVAGIGKSDRYTGYGSAVKGRATISRDDGQSTARLQLNNLRAEDTAVYYCVKDAGSGCGSGGWTGACIDTWGHGTEVIVSS VL: LTQPSSVSANLGGTVEITCSGGDSYAGSYYYGWYQQKAPGSAPVTVIYNNNNRPSNIPSRFSGSTSGSTATLTITGVQAEDEATYFCGSRDSSYVGIFGAGTTLTVL
–	1.01 pM	1.1e-06 s⁻¹	1.09e+06 M⁻¹ s⁻¹	0.02 µg/mL	DA26 (antibody, V domains shown) VH: AVTLDESGGGLQTPGGGLSLVCKGSGFTFSSFNMLWVRQAPGKGLEWVAGIGKSDRYTGYGSAVKGRATISRDDGQSTVYLQMNSLRAEDTGTYYCVKDAGSGCGSGGWTGACIDTWGHGTEVIVSS VL: LTQPSSVSANLGGTVEITCSGGDSYAGSYYYGWYQQKAPGSAPVTVIYNNNNRPSNIPSRFSGSTSGSTATLTITGVQAEDEATYYCGSRDSSYVGIFGAGTTLTVL
–	70.6 pM	8.79e-05 s⁻¹	1.24e+06 M⁻¹ s⁻¹	0.02 µg/mL	DA31 (antibody, V domains shown) VH: AVTLDESGGGLQTPGGGLSLVCKGSGFTFSSFNMLWVRQAPGKGLEWVAGIGKSDRYTGYGSAVKGRATISRDDGQSTARLQMNSLRAEDTGTYYCVKDAGSGCGSGGWTGACIDTWGHGTEVIVSS VL: LTQPSSVSANLGGTVEITCSGGDSYAGSYYYGWYQQKAPGSAPVTVIYNNNNRPSNIPSRFSGSTSGSTATLTITGVQAEDEATYFCGSRDSSYVGIFGAGTTLTVL
–	77.4 pM	7.97e-05 s⁻¹	1.03e+06 M⁻¹ s⁻¹	0.02 µg/mL	DA30 (antibody, V domains shown) VH: AVTLDESGGGLQTPGGGLSLVCKGSGFTFSSFNMLWVRQAPGKGLEWVAGIGKSDRYTGYGSAVKGRATISRDDGQSTAYLQMNSLRAEDTGTYYCVKDAGSGCGSGGWTGACIDTWGHGTEVIVSS VL: LTQPSSVSANLGGTVEITCSGGDSYAGSYYYGWYQQKAPGSAPVTVIYNNNNRPSNIPSRFSGSTSGSTATLTITGVQAEDEATYYCGSRDSSYVGIFGAGTTLTVL
–	3.89 pM	4.52e-06 s⁻¹	1.16e+06 M⁻¹ s⁻¹	0.02 µg/mL	DA28 (antibody, V domains shown) VH: AVTLDESGGGLQTPGGGLSLVCKGSGFTFSSFNMLWVRQAPGKGLEWVAGIGKSDRYTGYGSAVKGRATISRDDGQSTARLQLNNLRAEDTGTYYCVKDAGSGCGSGGWTGACIDTWGHGTEVIVSS VL: LTQPSSVSANLGGTVEITCSGGDSYAGSYYYGWYQQKAPGSAPVTVIYNNNNRPSNIPSRFSGSTSGSTATLTITGVQAEDEAVYFCGSRDSSYVGIFGAGTTLTVL
–	40.3 pM	2.8e-05 s⁻¹	696000 M⁻¹ s⁻¹	0.01 µg/mL	DA23 (antibody, V domains shown) VH: EVQLVESGGGLVQPGGSLRLSCAASGFTFSSFNMLWVRQAPGKGLEWVAGIGKSDRYTGYGSAVKGRFTISRDDSKSTVYLQMNSLRAEDTAVYYCVRDAGSPCGKGGWTGACIDTWGQGTLVTVSS VL: DIQMTQSPSSLSASVGDRVTITCSGGDSYAGSYYYGWYQQKPGKAPKTLIYNNNNRPSGVPSRFSGSTSGTDFTLTISSLQPEDFATYYCGSRDSSYVGIFGQGTKVEIK
–	34.2 pM	3.19e-05 s⁻¹	932000 M⁻¹ s⁻¹	0.02 µg/mL	DA22 (antibody, V domains shown) VH: EVQLVESGGGLVQPGGSLRLSCAASGFTFSSFNMLWVRQAPGKGLEWVAGIGKSDRYTGYGSAVKGRFTISRDDSKSTVYLQMNSLRAEDTAVYYCVRDAGSPCGSGGWTGACIDTWGQGTLVTVSS VL: DIQMTQSPSSLSASVGDRVTITCSGGDSYAGSYYYGWYQQKPGKAPKTLIYNNNNRPSGVPSRFSGSTSGTDFTLTISSLQPEDFATYYCGSRDSSYVGIFGQGTKVEIK
